The target in assay [1] is chimeric receptor consisting of the extracellular and transmembrane domain of VEGFR1 fused to the cytoplasmic domain of gp130 (UniProt P17948). In words: cell-based or functional assay.
For another assay, the target named is T1, VEGF-R2/Fc (human, UniProt P35968 20-764).
T1 construct: Bought from R&D Systems; also called VEGF receptor 2; not shown: human immunoglobulin Fc domain
In words: SPR (Biacore 2000), VEGF-B167 immobilised, receptor-Fc injected. As to the method: For control purposes binding of the receptors to VEGF-A₁₆₅ was also monitored. Both VEGF-B₁₆₇ and VEGF-A₁₆₅ were individually immobilised to a sensorchip using NHS/EDC chemistry according to the manufacturer's instructions. Briefly, 35 μl of NHS and EDC was injected onto the sensorchip at a flow rate of 5 μl/min to activate the sensor surface and enable covalent coupling of either VEGF-A₁₆₅ or VEGF-B₁₆₇. […] Post coupling, diaminoethane (50 mM, pH 9.0) was used to block any unbound activated sites on the sensor surface. Concentrated dimeric VEGF-B₁₆₇ (200 μg/ml) was diluted (1:10) in 20 mM sodium acetate and immobilized onto a separate channel on the sensorchip. Post coupling, diaminoethane (50 mM, pH 9.0) was used to block any unbound activated sites on the sensor surface.
At the end of each run, the surface of the sensorchip was regenerated using 2 cycles of phosphoric acid (0.1 M, 30 μl) at a flow of 50 μl/min. […] Both were diluted into 0.1% w/v BSA in PBS as a stock solution (50 μg/ml, storage −20° C.).
For orientation: Surface plasmon resonance follows binding to a sensor surface in real time, without labels.

A further assay concerns the target T2, VEGF-R1/Fc (human, UniProt P17948-2 27-758, limits assumed).
T2 construct: Bought from R&D Systems; also called VEGF receptor 1; Flt-1; not shown: human immunoglobulin Fc domain
In words: competition ELISA on captured VEGF-R1/Fc; competitor VEGF-A165 at 10 ng/ml, detected with biotinylated anti-VEGF-A165; VEGF-A165 at 10 ng/ml; VEGF-R1/Fc captured on plate. As to the method: 1. […] 2. […] 6. […] 7. Biotinylated anti-VEGF-A₁₆₅ (10 ng/ml in Buffer 20, 100 μl) was added and incubated for 1 hr. […] 8. […] 9. […] 10. […] 11.

chimeric receptor consisting of the extracellular and transmembrane domain of VEGFR1 fused to the cytoplasmic domain of gp130, sequence (P17948 other isoform, or with tags, fused parts or gaps mutant limits assumed): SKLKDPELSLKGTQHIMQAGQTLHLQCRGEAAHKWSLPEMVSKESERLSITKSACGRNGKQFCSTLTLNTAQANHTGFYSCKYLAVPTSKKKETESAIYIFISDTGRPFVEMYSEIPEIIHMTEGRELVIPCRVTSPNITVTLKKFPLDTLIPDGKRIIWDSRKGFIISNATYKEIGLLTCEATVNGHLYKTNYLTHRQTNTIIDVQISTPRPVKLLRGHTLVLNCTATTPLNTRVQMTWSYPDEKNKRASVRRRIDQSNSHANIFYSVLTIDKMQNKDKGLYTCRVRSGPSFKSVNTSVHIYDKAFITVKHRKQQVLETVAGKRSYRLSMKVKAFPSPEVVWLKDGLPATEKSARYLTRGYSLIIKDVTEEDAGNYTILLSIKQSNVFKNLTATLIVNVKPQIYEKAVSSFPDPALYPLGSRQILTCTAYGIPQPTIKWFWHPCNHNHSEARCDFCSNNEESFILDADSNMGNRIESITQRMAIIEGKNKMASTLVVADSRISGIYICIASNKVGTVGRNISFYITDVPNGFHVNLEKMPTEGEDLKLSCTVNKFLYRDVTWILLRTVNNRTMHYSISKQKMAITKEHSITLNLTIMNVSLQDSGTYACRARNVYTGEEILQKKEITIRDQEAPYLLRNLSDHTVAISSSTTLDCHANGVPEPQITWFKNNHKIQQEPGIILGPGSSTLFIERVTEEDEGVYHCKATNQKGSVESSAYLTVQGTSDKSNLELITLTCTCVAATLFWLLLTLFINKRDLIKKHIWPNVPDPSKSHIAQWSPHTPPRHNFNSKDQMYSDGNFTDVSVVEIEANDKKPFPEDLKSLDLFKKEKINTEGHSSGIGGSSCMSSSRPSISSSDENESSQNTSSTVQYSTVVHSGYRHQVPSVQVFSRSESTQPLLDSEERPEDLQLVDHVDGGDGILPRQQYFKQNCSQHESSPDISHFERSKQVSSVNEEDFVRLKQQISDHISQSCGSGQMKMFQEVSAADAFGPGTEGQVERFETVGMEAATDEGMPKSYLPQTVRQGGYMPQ
T2 sequence (P17948 27-758 limits assumed, form in doubt): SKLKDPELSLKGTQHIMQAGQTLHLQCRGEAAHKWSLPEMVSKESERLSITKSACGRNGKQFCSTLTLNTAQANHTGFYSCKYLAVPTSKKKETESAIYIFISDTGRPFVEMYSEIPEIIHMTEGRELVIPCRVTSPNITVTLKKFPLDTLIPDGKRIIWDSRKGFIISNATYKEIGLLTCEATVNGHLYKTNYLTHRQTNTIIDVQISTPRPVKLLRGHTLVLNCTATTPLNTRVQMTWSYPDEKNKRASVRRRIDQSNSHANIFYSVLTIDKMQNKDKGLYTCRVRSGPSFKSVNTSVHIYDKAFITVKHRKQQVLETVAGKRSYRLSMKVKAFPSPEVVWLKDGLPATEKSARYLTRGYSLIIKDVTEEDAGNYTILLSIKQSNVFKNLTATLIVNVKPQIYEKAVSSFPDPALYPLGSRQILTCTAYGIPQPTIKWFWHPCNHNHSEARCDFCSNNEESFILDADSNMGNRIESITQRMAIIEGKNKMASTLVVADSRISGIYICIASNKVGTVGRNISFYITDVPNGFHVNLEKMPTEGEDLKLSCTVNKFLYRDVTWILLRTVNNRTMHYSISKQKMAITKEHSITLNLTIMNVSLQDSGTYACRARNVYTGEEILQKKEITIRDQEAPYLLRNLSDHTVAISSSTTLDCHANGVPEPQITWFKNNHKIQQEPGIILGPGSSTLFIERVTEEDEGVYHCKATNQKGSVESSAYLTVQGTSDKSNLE
T1 sequence (P35968 20-764 limits assumed): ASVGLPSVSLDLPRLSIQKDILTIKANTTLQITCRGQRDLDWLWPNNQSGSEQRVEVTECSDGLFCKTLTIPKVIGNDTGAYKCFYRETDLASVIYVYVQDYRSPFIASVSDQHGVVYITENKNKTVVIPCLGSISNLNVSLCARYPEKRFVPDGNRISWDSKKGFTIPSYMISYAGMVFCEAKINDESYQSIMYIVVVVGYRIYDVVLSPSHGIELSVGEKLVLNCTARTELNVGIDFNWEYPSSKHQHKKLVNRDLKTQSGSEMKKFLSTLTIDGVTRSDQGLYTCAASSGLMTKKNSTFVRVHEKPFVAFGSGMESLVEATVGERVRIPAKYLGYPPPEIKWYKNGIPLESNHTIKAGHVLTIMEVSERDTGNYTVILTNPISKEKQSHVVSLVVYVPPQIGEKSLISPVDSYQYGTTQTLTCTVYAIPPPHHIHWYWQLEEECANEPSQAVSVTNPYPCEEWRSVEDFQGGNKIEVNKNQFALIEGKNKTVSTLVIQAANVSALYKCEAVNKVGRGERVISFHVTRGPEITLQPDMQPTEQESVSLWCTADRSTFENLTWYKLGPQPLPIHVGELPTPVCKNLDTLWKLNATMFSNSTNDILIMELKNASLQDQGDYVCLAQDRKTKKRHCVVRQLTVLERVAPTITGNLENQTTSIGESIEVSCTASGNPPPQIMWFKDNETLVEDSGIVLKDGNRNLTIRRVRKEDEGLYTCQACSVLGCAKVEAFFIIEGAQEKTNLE

Regarding “VEGF-A (from UniProt P15692 27-191) (ligand)”, in assay [1], the luciferase reporter activity (ED50) fell in the range of 0.01 to 0.05 µg/mL.

B1: refolded dimeric VEGF-B167 (ligand)
chain: APVSQPDAPGHQRKVVSWIDVYTRATCQPREVVVPLTVELMGTVAKQLVPSCVTVQRCGGCCPDDGLECVPTGQHQVRMQILMIRYPSSQLGEMSLEEHSQCECRPKKKDSAVKPDSPRPLCPRCTQHHQRPDPRTCRCRCRRRSFLRCQGRGLELNPDTCRCRKLRR
notes: also called purified dimeric VEGF-B167
B1: in the assay with VEGF-R2/Fc, the binding result was “no binding (tested: 50 µg/ml stock diluted 1:10)”. Further, the IC50 with VEGF-R1/Fc is around 0.02 µg/mL.

Broadly, the IC50 is the concentration needed to halve the response being measured. Low readings indicate greater potency in that assay, high ones weaker potency in that assay.

The values are drawn from patent US20070111944A1 (published 2007).
